The values that follow come from patent US20190015515A1.

Assay [1] has as its target glucose transporter 4 (GLUT4) on mouse red blood cells (mRBCs) or mRBC membranes (mouse) (UniProt P14142). Kind of assay: flow cytometry (MFI) of Glu-FITC-insulin attached mRBCs treated with free glucose.
The target is the same in assay [2]. The experiment in a line: ELISA of insulin released from Glu-Insulin loaded mRBCs at 37 C. (ELISA stands for enzyme-linked immunosorbent assay.)
For assay [3] the target is unchanged. The experiment in a line: ELISA of insulin bound to mRBCs.
Assay [4] has the same target. The experiment in a line: loading of 1x10^8 RBCs with 0.5 mg/mL Glu-Insulin overnight, ELISA.
For assay [5], the target named is glucose transporter 1 (GLUT1) on human red blood cells (hRBCs) (human) (UniProt P11166). Described as above.
Sequence of UniProt P11166 (P11166 whole entry): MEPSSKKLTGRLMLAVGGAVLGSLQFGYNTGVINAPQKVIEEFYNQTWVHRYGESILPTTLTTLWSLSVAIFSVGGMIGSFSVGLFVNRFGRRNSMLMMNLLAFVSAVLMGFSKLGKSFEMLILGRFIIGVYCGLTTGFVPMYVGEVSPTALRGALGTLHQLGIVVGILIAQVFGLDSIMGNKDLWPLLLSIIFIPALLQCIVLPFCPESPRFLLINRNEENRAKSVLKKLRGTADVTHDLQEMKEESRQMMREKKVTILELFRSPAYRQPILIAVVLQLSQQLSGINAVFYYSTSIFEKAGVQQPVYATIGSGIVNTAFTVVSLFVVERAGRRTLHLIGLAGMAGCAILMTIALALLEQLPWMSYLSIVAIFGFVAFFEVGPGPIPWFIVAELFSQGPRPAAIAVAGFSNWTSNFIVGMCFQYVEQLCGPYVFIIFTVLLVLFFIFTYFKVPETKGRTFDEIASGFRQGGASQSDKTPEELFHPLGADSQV

Sequence of UniProt P14142 (P14142 whole entry): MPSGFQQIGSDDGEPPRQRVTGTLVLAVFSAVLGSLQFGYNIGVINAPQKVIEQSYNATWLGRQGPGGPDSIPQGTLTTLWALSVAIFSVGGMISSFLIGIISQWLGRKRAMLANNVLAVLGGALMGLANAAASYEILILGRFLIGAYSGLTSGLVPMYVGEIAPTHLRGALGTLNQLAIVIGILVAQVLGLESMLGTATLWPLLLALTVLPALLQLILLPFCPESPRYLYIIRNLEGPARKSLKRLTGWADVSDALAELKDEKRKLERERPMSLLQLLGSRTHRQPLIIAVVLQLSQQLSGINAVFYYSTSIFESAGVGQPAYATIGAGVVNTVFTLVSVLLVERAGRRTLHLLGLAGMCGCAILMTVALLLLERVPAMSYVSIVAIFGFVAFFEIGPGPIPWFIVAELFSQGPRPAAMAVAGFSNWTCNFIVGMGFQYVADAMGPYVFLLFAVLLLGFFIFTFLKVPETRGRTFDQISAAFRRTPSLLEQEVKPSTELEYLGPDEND

On to “glucose-modified insulin (Glu-Insulin) (from UniProt P01308 90-110; P01308 25-54) (ligand)”, for which, in assay [1], the decrease of insulin signal on mRBCs at 400 mg/dL glucose came to 50%. Also, the percent released from mRBCs at 400 mg/dL glucose within 2 h in assay [2] worked out at 50%. For the same substance, in assay [3], the loaded insulin per cell is under 5e-13 g per cell. Moreover, the percent of Glu-Insulin bound in assay [4] was determined as 20%; in assay [5], 60%.
